Measured values as given in patent US20160122426A1 (DONG A SOCIO, published 2016).

T1: mouse VEGF (mouse, UniProt Q00731-2 27-190)
T1 construct: Bought recombinant protein; also called mVEGF-A; mouse VEGF-A
T1 sequence (looked up): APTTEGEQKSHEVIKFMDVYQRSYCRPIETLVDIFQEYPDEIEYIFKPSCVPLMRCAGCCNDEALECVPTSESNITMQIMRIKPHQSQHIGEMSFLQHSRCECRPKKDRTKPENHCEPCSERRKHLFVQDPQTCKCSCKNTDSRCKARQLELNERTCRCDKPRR


Tests used:
human VEGF [1] = biological target: T2, human VEGF (human, UniProt P15692-4 27-191); experiment: SPR (BIAcore X100), VEGF on CM5 chip, IgG injected, 1:1 Langmuir
T2 construct: Bought recombinant protein; also called hVEGF; human VEGF-A
Description: Meanwhile, to measure the affinity, human VEGF and mouse VEGF were coupled to carboxymethylated dextran biosensor chips (CM5, GE) according to the manufacturer's instructions.
The association and dissociation rates were expressed by the association and dissociation sensorgram, and calculated using a simple 1:1 Langmuir binding model (BIAcore X100 evaluation software, ver. 2.0).

mouse VEGF = biological target: T1, mouse VEGF; experiment: ELISA and BIAcore
human VEGF [2] = biological target: T2, human VEGF; experiment: ELISA and BIAcore

Binder	Kd (human VEGF [1])	koff (human VEGF [1])	kon (human VEGF [1])	fold affinity over mother clone F (mouse VEGF)	fold affinity over mother clone F (human VEGF [2])
HF2-2 (antibody, V domains shown) VH: EVQLVESGGGLVQPGGSLRLSCAASRFNMRSHGMQWVRQAPGKGLEYVAGISSDGSWERVGAAVEGRFTISRDDSKNTAYLQMNSLRAEDTAVYYCARDFSTGYGADSIDAWGQGTLVTVSS VL: DIQMTQSPSSLSASVGDRVTITCSGGSDSAYGYGWYQQKPGKAPKTLIYWDDKRPSGVPSRFSGSRSGTDFTLTISSLQPEDFATYYCGAWEYSGGVGIFGQGTKVEIK	< 1 pM	< 1e-06 s⁻¹	1.1e+06 M⁻¹ s⁻¹	≥ 10 times	≥ 10 times
HF2-23 (antibody, V domains shown) VH: EVQLVESGGGLVQPGGSLRLSCAASGFRIRSHGMQWVRQAPGKGLEYVAGISSDGSWFSSAAAVEGRFTISRDDSKNTAYLQMNSLRAEDTAVYYCARDFSTGYGADSIDAWGQGTLVTVSS VL: DIQMTQSPSSLSASVGDRVTITCSGGSDLLLGYGWYQQKPGKAPKTLIYWDDKRPSGVPSRFSGSRSGTDFTLTISSLQPEDFATYYCGAWEYSGGVGIFGQGTKVEIK				≥ 10 times	≥ 10 times
HF2-10 (antibody, V domains shown) VH: EVQLVESGGGLVQPGGSLRLSCAASFQYFRSHGMQWVRQAPGKGLEYVAGISSDGSWFRVAAAVEGRFTISRDDSKNTAYLQMNSLRAEDTAVYYCARDFSTGYGADSIDAWGQGTLVTVSS VL: DIQMTQSPSSLSASVGDRVTITCSGGSMEPLGYGWYQQKPGKAPKTLIYWDDKRPSGVPSRFSGSRSGTDFTLTISSLQPEDFATYYCGAWEYSGGVGIFGQGTKVEIK	< 1 pM	< 1e-06 s⁻¹	1.6e+06 M⁻¹ s⁻¹	≥ 10 times	≥ 10 times
HF2-6 (antibody, V domains shown) VH: EVQLVESGGGLVQPGGSLRLSCAASRFLLRSHGMQWVRQAPGKGLEYVAGISSDGSWFRVAAAVEGRFTISRDDSKNTAYLQMNSLRAEDTAVYYCARDFSTGYGADSIDAWGQGTLVTVSS VL: DIQMTQSPSSLSASVGDRVTITCSGGSMEPLGYGWYQQKPGKAPKTLIYWDDKRPSGVPSRFSGSRSGTDFTLTISSLQPEDFATYYCGAWEYSGGVGIFGQGTKVEIK	< 1 pM	< 1e-06 s⁻¹	1.6e+06 M⁻¹ s⁻¹	≥ 10 times	≥ 10 times
HF2-13 (antibody, V domains shown) VH: EVQLVESGGGLVQPGGSLRLSCAASGFLVRSHGMQWVRQAPGKGLEYVAGISSDGSWQRVNAAVEGRFTISRDDSKNTAYLQMNSLRAEDTAVYYCARDFSTGYGADSIDAWGQGTLVTVSS VL: DIQMTQSPSSLSASVGDRVTITCSGGSDLLLGYGWYQQKPGKAPKTLIYWDDKRPSGVPSRFSGSRSGTDFTLTISSLQPEDFATYYCGAWEYSGGVGIFGQGTKVEIK	≤ 9 pM	≤ 1e-05 s⁻¹	1.4e+06 M⁻¹ s⁻¹	≥ 10 times	≥ 10 times
HF2-16 (antibody, V domains shown) VH: EVQLVESGGGLVQPGGSLRLSCAASGFRIRSHGMQWVRQAPGKGLEYVAGISSDGSWVKVAAAVEGRFTISRDDSKNTAYLQMNSLRAEDTAVYYCARDFSTGYGADSIDAWGQGTLVTVSS VL: DIQMTQSPSSLSASVGDRVTITCSGGSIEPLGYGWYQQKPGKAPKTLIYWDDKRPSGVPSRFSGSRSGTDFTLTISSLQPEDFATYYCGAWEYSGGVGIFGQGTKVEIK				≥ 10 times	≥ 10 times
HF2-15 (antibody, V domains shown) VH: EVQLVESGGGLVQPGGSLRLSCAASGFVVRSHGMQWVRQAPGKGLEYVAGISSDGSWKATAAAVEGRFTISRDDSKNTAYLQMNSLRAEDTAVYYCARDFSTGYGADSIDAWGQGTLVTVSS VL: DIQMTQSPSSLSASVGDRVTITCSGGSQESLGYGWYQQKPGKAPKTLIYWDDKRPSGVPSRFSGSRSGTDFTLTISSLQPEDFATYYCGAWEYSGGVGIFGQGTKVEIK				≥ 10 times	≥ 10 times
HF2-12 (antibody, V domains shown) VH: EVQLVESGGGLVQPGGSLRLSCAASYSEVRSHGMQWVRQAPGKGLEYVAGISSDGSWFRVAAAVEGRFTISRDDSKNTAYLQMNSLRAEDTAVYYCARDFSTGYGADSIDAWGQGTLVTVSS VL: DIQMTQSPSSLSASVGDRVTITCSGGSMEPLGYGWYQQKPGKAPKTLIYWDDKRPSGVPSRFSGSRSGTDFTLTISSLQPEDFATYYCGAWEYSGGVGIFGQGTKVEIK				≥ 10 times	≥ 10 times
HF2-18 (antibody, V domains shown) VH: EVQLVESGGGLVQPGGSLRLSCAASYWAFRSHGMQWVRQAPGKGLEYVAGISSDGSWFSSAAAVEGRFTISRDDSKNTAYLQMNSLRAEDTAVYYCARDFSTGYGADSIDAWGQGTLVTVSS VL: DIQMTQSPSSLSASVGDRVTITCSGGSIEPLGYGWYQQKPGKAPKTLIYWDDKRPSGVPSRFSGSRSGTDFTLTISSLQPEDFATYYCGAWEYSGGVGIFGQGTKVEIK				≥ 10 times	≥ 10 times
HF2-22 (antibody, V domains shown) VH: EVQLVESGGGLVQPGGSLRLSCAASGFRIRSHGMQWVRQAPGKGLEYVAGISSDGSWFRVAAAVEGRFTISRDDSKNTAYLQMNSLRAEDTAVYYCARDFSTGYGADSIDAWGQGTLVTVSS VL: DIQMTQSPSSLSASVGDRVTITCSGGSTAGVGYGWYQQKPGKAPKTLIYWDDKRPSGVPSRFSGSRSGTDFTLTISSLQPEDFATYYCGAWEYSGGVGIFGQGTKVEIK				≥ 10 times	≥ 10 times
HF2-17 (antibody, V domains shown) VH: EVQLVESGGGLVQPGGSLRLSCAASGFMIRSHGMQWVRQAPGKGLEYVAGISSDGSWRRHSAAVEGRFTISRDDSKNTAYLQMNSLRAEDTAVYYCARDFSTGYGADSIDAWGQGTLVTVSS VL: DIQMTQSPSSLSASVGDRVTITCSGGSIEPLGYGWYQQKPGKAPKTLIYWDDKRPSGVPSRFSGSRSGTDFTLTISSLQPEDFATYYCGAWEYSGGVGIFGQGTKVEIK				≥ 10 times	≥ 10 times
HF2-24 (antibody, V domains shown) VH: EVQLVESGGGLVQPGGSLRLSCAASRFNMRSHGMQWVRQAPGKGLEYVAGISSDGSWVKVAAAVEGRFTISRDDSKNTAYLQMNSLRAEDTAVYYCARDFSTGYGADSIDAWGQGTLVTVSS VL: DIQMTQSPSSLSASVGDRVTITCSGGSQESLGYGWYQQKPGKAPKTLIYWDDKRPSGVPSRFSGSRSGTDFTLTISSLQPEDFATYYCGAWEYSGGVGIFGQGTKVEIK				≥ 10 times	≥ 10 times
HF2-20 (antibody, V domains shown) VH: EVQLVESGGGLVQPGGSLRLSCAASYMEYRSHGMQWVRQAPGKGLEYVAGISSDGSWSRVDAAVEGRFTISRDDSKNTAYLQMNSLRAEDTAVYYCARDFSTGYGADSIDAWGQGTLVTVSS VL: DIQMTQSPSSLSASVGDRVTITCSGGSDSAYGYGWYQQKPGKAPKTLIYWDDKRPSGVPSRFSGSRSGTDFTLTISSLQPEDFATYYCGAWEYSGGVGIFGQGTKVEIK				≥ 10 times	≥ 10 times
HF2-21 (antibody, V domains shown) VH: EVQLVESGGGLVQPGGSLRLSCAASFQYFRSHGMQWVRQAPGKGLEYVAGISSDGSWYRVQAAVEGRFTISRDDSKNTAYLQMNSLRAEDTAVYYCARDFSTGYGADSIDAWGQGTLVTVSS VL: DIQMTQSPSSLSASVGDRVTITCSGGSMEPLGYGWYQQKPGKAPKTLIYWDDKRPSGVPSRFSGSRSGTDFTLTISSLQPEDFATYYCGAWEYSGGVGIFGQGTKVEIK				≥ 10 times	≥ 10 times
HF2-7 (antibody, V domains shown) VH: EVQLVESGGGLVQPGGSLRLSCAASQFWIRSHGMQWVRQAPGKGLEYVAGISSDGSWFRVAAAVEGRFTISRDDSKNTAYLQMNSLRAEDTAVYYCARDFSTGYGADSIDAWGQGTLVTVSS VL: DIQMTQSPSSLSASVGDRVTITCSGGSMEPLGYGWYQQKPGKAPKTLIYWDDKRPSGVPSRFSGSRSGTDFTLTISSLQPEDFATYYCGAWEYSGGVGIFGQGTKVEIK	16 pM	2.7e-05 s⁻¹	1.6e+06 M⁻¹ s⁻¹	≥ 10 times	≥ 10 times
HF2-3 (antibody, V domains shown, also called HF-3) VH: EVQLVESGGGLVQPGGSLRLSCAASHFNMRSHGMQWVRQAPGKGLEYVAGISSDGSWFRVAAAVEGRFTISRDDSKNTAYLQMNSLRAEDTAVYYCARDFSTGYGADSIDAWGQGTLVTVSS VL: DIQMTQSPSSLSASVGDRVTITCSGGSDSAYGYGWYQQKPGKAPKTLIYWDDKRPSGAPSRFSGSRSGTDFTLTISSLQPEDFATYYCGAWEYSGGVGIFGQGTKVEIK	< 1 pM	< 1e-06 s⁻¹	1.3e+06 M⁻¹ s⁻¹	≥ 10 times	≥ 10 times
